Source: IntAct's records for PubMed 23386615

B1: Peroxiredoxin-1 (Homo sapiens), Q06830 (parent)
chain: MSSGNAKIGHPAPNFKATAVMPDGQFKDISLSDYKGKYVVFFFYPLDFTFVCPTEIIAFSDRAEEFKKLNCQVIGASVDSHFCHLAWVNTPKKQGGLGPMNIPLVSDPKRTIAQDYGVLKADEGISFRGLFIIDDKGILRQITVNDLPVGRSVDETLRLVQAFQFTDKHGEVCPAGWKPGSDTIKPDVQKSKEYFSKQK
partner: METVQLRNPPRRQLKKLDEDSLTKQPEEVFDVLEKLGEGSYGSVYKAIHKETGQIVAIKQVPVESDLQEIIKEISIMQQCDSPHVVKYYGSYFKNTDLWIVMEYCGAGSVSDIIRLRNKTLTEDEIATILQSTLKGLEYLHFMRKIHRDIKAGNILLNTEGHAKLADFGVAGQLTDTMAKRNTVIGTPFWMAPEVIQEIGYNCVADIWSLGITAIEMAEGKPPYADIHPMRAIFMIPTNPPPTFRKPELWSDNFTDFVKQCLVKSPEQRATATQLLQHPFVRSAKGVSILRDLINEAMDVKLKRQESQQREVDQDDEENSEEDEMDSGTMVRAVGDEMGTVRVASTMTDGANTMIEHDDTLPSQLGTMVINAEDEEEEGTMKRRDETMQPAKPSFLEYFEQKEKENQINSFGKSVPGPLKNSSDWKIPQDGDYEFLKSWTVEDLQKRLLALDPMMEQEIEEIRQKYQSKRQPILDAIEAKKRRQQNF
B2: Serine/threonine-protein kinase 4 (Homo sapiens), Q13043 (parent)
chain: B1 partner
partner: B1 chain

Variants of: B1
Conditions: with stk4_human STK4, Q13043

| effect of a mutation on the interaction | Variant |
| --- | --- |
| decreasing interaction | C52S;C173S |

Variants of: B2
Conditions: with prdx1_human PRDX1, Q06830

| effect of a mutation on the interaction | Variant |
| --- | --- |
| increasing interaction | K59R |
